This test has as its target Influenza A [A/Hawaii/70/2019 (H1N1)pdm09-like virus] Hemagglutinin (HA), His-Tag (Native Antigen Co (Influenza A [A/Hawaii/70/2019 (H1N1)pdm09-like virus])).

We go through one substance from patent publication US20220341931A1.

“SARS-CoV-2 (2019-nCoV) Nucleocapsid Antibody, Rabbit MAb (Sino Biological Cat: 40143-R019)” showed a barcode sequence counts (FLU A) of 2000 counts.
